From patent US20120114659A1

Target: human NPRA on HEK cells, without ligand (human) (UniProt P16066)
Assay: cell-based or functional assay

Chain of human NPRA on HEK cells, without ligand (human) (P16066 33-1061 limits assumed): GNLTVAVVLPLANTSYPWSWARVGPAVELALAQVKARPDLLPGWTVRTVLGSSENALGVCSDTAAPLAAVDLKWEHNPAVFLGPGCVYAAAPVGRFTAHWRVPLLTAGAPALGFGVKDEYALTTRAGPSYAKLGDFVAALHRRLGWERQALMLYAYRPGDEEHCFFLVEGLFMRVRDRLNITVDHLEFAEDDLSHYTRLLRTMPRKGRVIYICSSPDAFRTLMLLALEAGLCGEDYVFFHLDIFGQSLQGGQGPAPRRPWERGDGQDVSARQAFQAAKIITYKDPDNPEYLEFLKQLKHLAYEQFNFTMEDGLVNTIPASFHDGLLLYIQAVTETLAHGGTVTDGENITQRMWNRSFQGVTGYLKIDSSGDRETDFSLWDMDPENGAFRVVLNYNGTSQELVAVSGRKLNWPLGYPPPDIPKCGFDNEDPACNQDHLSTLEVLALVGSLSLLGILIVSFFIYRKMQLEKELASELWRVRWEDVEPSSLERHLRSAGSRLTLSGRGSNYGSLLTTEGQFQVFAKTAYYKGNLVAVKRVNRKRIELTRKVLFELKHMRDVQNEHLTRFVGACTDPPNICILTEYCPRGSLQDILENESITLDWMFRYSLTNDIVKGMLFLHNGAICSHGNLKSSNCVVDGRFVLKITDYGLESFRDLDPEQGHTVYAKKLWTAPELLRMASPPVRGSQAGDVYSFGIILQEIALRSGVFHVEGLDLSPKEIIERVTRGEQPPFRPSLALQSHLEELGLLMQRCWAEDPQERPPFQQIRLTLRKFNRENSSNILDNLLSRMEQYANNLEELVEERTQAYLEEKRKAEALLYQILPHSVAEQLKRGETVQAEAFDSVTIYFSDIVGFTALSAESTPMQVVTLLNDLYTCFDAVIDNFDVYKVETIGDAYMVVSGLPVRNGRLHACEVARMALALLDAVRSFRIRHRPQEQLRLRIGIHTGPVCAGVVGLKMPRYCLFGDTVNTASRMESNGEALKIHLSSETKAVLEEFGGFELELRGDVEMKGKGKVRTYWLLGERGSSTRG
Chain of BNP (B-type natriuretic peptide) (P16860 103-134): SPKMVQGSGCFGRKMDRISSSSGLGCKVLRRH

Substance: BNP (B-type natriuretic peptide) (from UniProt P16860 103-134)
- EC50 of BNP for cGMP production in HEK NPRA cells in presence of 400 nM Fab 5504: 0.018 µM
- EC50 of BNP for cGMP production in HEK NPRA cells in presence of 400 nM negative control Fab: 0.09 µM
